Molecular target: MIWI (mouse homologue of PIWI) (UniProt Q9JMB7 1-862)
Test: EMSA; shift abolished by MIWI antibody, not by Argonaute 3 antibody; competed by cold piR1; 20 mM HEPES (pH not stated), 3 mM MgCl2, 40 mM KCl, 5% glycerol, 2 mM DTT, 4 U RNase inhibitor; 5 ug MIWI in 25 ul; on ice, 30 min with probe (competitor/antibody 1 h before); 5% native PAGE
Conditions: protein: recombinant; tags: FLAG; label: 32P end label

Sequence of MIWI (mouse homologue of PIWI) (Q9JMB7 whole entry): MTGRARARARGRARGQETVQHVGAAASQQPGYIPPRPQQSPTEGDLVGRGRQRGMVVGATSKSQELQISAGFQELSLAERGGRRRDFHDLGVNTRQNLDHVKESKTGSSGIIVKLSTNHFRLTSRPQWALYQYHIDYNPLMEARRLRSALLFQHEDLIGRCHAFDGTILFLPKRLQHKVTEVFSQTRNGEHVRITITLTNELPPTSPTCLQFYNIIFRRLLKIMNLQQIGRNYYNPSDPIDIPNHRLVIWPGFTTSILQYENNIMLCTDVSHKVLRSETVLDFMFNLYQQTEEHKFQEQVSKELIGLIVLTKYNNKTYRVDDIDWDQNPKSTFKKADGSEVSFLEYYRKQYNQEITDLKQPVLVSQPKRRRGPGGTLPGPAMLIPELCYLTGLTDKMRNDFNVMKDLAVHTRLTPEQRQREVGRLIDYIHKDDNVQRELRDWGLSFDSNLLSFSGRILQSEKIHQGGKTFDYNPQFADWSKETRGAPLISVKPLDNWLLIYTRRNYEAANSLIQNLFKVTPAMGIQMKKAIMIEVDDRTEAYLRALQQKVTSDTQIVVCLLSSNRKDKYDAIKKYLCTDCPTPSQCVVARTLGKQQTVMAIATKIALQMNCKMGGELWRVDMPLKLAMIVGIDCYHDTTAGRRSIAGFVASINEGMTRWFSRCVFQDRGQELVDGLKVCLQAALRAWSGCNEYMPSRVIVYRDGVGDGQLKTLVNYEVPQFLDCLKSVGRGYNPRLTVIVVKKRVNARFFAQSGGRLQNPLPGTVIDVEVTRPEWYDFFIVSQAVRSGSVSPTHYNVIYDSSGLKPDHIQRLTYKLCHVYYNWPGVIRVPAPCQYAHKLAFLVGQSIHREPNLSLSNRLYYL

GAAGCAGAUGAGUAUAUG (ssRNA) [Sod oligo (FJ541118)]: binds.

UCAUUGGACAUAAACUGAAUUUUCCA (ssRNA) [spot A4 oligo (FJ541077)]: binds.

Source: paper PMC8428117, “Y chromosomal noncoding RNAs regulate autosomal gene expression via piRNAs in mouse testis”
